According to patent US20150203548A1 (GOVERNMENT OF THE UNITED STATES OF AMERICA AS REPRESENTED …, published 2015):

Target: T1, Staphylococcal Enterotoxin B (SEB) (UniProt P01552 28-266)
T1 sequence: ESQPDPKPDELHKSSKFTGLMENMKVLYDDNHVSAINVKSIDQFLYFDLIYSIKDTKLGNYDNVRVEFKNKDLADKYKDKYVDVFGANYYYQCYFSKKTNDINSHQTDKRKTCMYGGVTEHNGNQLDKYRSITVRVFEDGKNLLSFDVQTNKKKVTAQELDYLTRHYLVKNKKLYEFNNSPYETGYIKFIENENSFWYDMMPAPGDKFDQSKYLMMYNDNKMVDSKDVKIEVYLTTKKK
Assay: SPR on SEB-coated chip

B1: sdAb A3 lacking the disulfide (A3-ds) (VHH)
VHH: EVQLVESGGGLVQAGDSLRLSATASGRTFSRAVMGWFRQAPGKEREFVAAISAAPGTAYYAFYADSVRGRFSISADSAKNTVYLQMNSLKPEDTAVYYVAADLKMQVAAYMNQRSVDYWGQGTQVTVSSAAALEHHHHHH
- binding result: binds
